Reference: paper PMC9352680, “A comprehensive thermodynamic model for RNA binding by the Saccharomyces cerevisiae Pumilio protein PUF4”

T1: PUF4 RNA-binding domain (Saccharomyces cerevisiae, UniProt P25339 537-888)
T1 sequence: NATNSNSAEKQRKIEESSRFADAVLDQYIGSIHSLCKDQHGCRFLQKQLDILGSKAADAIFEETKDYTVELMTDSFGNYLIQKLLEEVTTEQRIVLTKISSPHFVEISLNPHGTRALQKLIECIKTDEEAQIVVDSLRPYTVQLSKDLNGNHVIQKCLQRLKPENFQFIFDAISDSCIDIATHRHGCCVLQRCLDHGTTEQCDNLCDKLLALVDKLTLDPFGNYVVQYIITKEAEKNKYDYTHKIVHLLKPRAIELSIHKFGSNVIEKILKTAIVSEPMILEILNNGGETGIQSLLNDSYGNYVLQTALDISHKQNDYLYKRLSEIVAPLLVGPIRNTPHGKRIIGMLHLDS


Biological target: T1, PUF4 RNA-binding domain
Experiment: Mg; RNA-MaP; 20 mM Na-HEPES pH 7.4, 30 mM KOAc, 0.75 mM MgCl2, 0.1% Tween-20, 5% glycerol, 0.1 mg/mL BSA, 2 mM DTT; 25 C; 0.0125-409.6 nM protein
Conditions: tags: N-His6-TEV cleaved; C-SNAP kept, Cy3B-labelled; label: tethered on chip by stalled RNA polymerase

Binder	Kd [nM]
Ic_S2_P5E.1_K5.1_C5.1_H5.1_A5.1_[T5A]_[A7T]_F5.1_[T8A]_[T9C]_[A10G]_T5.1 (ssRNA) RNA: UUUGAUUAAUAUGAUAUCGUUCUUUCUUGUAAUUACGUUCUUUCUCGAUAUCAUAUUAAUCUUU	761
Ic_S2_P5E.1_K5.1_C5.1_H5.1_A5.1_[T6G]_[A7C]_F5.1_[T8C]_[T9C]_[A10T]_T5.1 (ssRNA) RNA: UUUGAUUAAUAUGAUAUCGUUCUUUCUUGUAUGCCCUUUCUUUCUCGAUAUCAUAUUAAUCUUU	582
Ic_S2_P5E.1_K5.1_C5.1_H5.1_A5.1_[T6C]_[A7T]_F5.1_[T8A]_[A10C]_T5.1 (ssRNA) RNA: UUUGAUUAAUAUGAUAUCGUUCUUUCUUGUAUCUAUCUUCUUUCUCGAUAUCAUAUUAAUCUUU	12.7
Ic_S2_P5E.1_K5.1_C5.1_H5.1_A5.1_[T5G]_[T6C]_F5.1_[T9C]_T5.1 (ssRNA) RNA: UUUGAUUAAUAUGAUAUCGUUCUUUCUUGUAGCAUCAUUCUUUCUCGAUAUCAUAUUAAUCUUU	87.8
Ic_S2_P5E.1_K5.1_C5.1_H5.1_A5.1_F5.1_[T8A]_[T9C]_[A10T]_T5.1 (ssRNA) RNA: UUUGAUUAAUAUGAUAUCGUUCUUUCUUGUAUUAACUUUCUUUCUCGAUAUCAUAUUAAUCUUU	558
Ic_S2_P5E.1_K5.1_C5.1_H5.1_A5.1_[T5C]_[T6C]_[A7G]_F5.1_[T8G]_[A10C]_T5.1 (ssRNA) RNA: UUUGAUUAAUAUGAUAUCGUUCUUUCUUGUACCGGUCUUCUUUCUCGAUAUCAUAUUAAUCUUU	> 2300
Ic_S2_P5E.1_K5.1_C5.1_H5.1_A5.1_[T5A]_[T6A]_[A7T]_F5.1_[T8A]_[T9A]_[A10C]_T5.1 (ssRNA) RNA: UUUGAUUAAUAUGAUAUCGUUCUUUCUUGUAAAUAACUUCUUUCUCGAUAUCAUAUUAAUCUUU	30.3
Ic_S2_P5E.1_K5.1_C5.1_H5.1_A5.1_[T6C]_[A7G]_F5.1_[T9A]_[A10C]_T5.1 (ssRNA) RNA: UUUGAUUAAUAUGAUAUCGUUCUUUCUUGUAUCGUACUUCUUUCUCGAUAUCAUAUUAAUCUUU	28
Ic_S2_P5E.1_K5.1_C5.1_H5.1_A5.1_[T5A]_[T6A]_[A7T]_F5.1_[T8C]_[A10T]_T5.1 (ssRNA) RNA: UUUGAUUAAUAUGAUAUCGUUCUUUCUUGUAAAUCUUUUCUUUCUCGAUAUCAUAUUAAUCUUU	76.2
Ic_S2_P5E.1_K5.1_C5.1_H5.1_A5.1_[T5A]_[T6A]_[A7C]_F5.1_[T9A]_T5.1 (ssRNA) RNA: UUUGAUUAAUAUGAUAUCGUUCUUUCUUGUAAACUAAUUCUUUCUCGAUAUCAUAUUAAUCUUU	1.9
Ic_S2_P5E.1_K5.1_C5.1_H5.1_A5.1_[T5A]_[T6C]_[A7C]_F5.1_[T8C]_[T9A]_T5.1 (ssRNA) RNA: UUUGAUUAAUAUGAUAUCGUUCUUUCUUGUAACCCAAUUCUUUCUCGAUAUCAUAUUAAUCUUU	> 2300
Ic_S2_P5E.1_K5.1_C5.1_H5.1_A5.1_[T5C]_[A7T]_F5.1_[T8C]_[T9A]_[A10T]_T5.1 (ssRNA) RNA: UUUGAUUAAUAUGAUAUCGUUCUUUCUUGUACUUCAUUUCUUUCUCGAUAUCAUAUUAAUCUUU	80.5
Ic_S2_P5E.1_K5.1_C5.1_H5.1_A5.1_[T5C]_[T6A]_F5.1_[T9A]_T5.1 (ssRNA) RNA: UUUGAUUAAUAUGAUAUCGUUCUUUCUUGUACAAUAAUUCUUUCUCGAUAUCAUAUUAAUCUUU	0.983
Ic_S2_P5E.1_K5.1_C5.1_H5.1_A5.1_[T5A]_[T6C]_[A7C]_F5.1_[T8C]_[T9A]_[A10T]_T5.1 (ssRNA) RNA: UUUGAUUAAUAUGAUAUCGUUCUUUCUUGUAACCCAUUUCUUUCUCGAUAUCAUAUUAAUCUUU	591
Ic_S2_P5E.1_K5.1_C5.1_H5.1_A5.1_[A7C]_F5.1_[T8G]_[T9G]_[A10T]_T5.1 (ssRNA) RNA: UUUGAUUAAUAUGAUAUCGUUCUUUCUUGUAUUCGGUUUCUUUCUCGAUAUCAUAUUAAUCUUU	475
Ic_S2_P5E.1_K5.1_C5.1_H5.1_A5.1_[T6G]_[A7T]_F5.1_[T8A]_[T9C]_[A10T]_T5.1 (ssRNA) RNA: UUUGAUUAAUAUGAUAUCGUUCUUUCUUGUAUGUACUUUCUUUCUCGAUAUCAUAUUAAUCUUU	26.3
Ic_S2_P5E.1_K5.1_C5.1_H5.1_A5.1_[T5C]_[T6C]_F5.1_[T8C]_[T9C]_[A10C]_T5.1 (ssRNA) RNA: UUUGAUUAAUAUGAUAUCGUUCUUUCUUGUACCACCCUUCUUUCUCGAUAUCAUAUUAAUCUUU	347
Ic_S2_P5E.1_K5.1_C5.1_H5.1_A5.1_[T5C]_[T6C]_F5.1_[T9C]_[A10T]_T5.1 (ssRNA) RNA: UUUGAUUAAUAUGAUAUCGUUCUUUCUUGUACCAUCUUUCUUUCUCGAUAUCAUAUUAAUCUUU	5.17
Ic_S2_P5E.1_K5.1_C5.1_H5.1_A5.1_[T5G]_[A7C]_F5.1_[T9A]_T5.1 (ssRNA) RNA: UUUGAUUAAUAUGAUAUCGUUCUUUCUUGUAGUCUAAUUCUUUCUCGAUAUCAUAUUAAUCUUU	6.4
Ic_S2_P5E.1_K5.1_C5.1_H5.1_A5.1_[T5C]_[T6A]_[A7C]_F5.1_[T9C]_[A10C]_T5.1 (ssRNA) RNA: UUUGAUUAAUAUGAUAUCGUUCUUUCUUGUACACUCCUUCUUUCUCGAUAUCAUAUUAAUCUUU	5.44
Ic_S2_P5E.1_K5.1_C5.1_H5.1_A5.1_[T5A]_[A7C]_F5.1_[T9C]_[A10T]_T5.1 (ssRNA) RNA: UUUGAUUAAUAUGAUAUCGUUCUUUCUUGUAAUCUCUUUCUUUCUCGAUAUCAUAUUAAUCUUU	36.5
Ic_S2_P5E.1_K5.1_C5.1_H5.1_A5.1_[A7T]_F5.1_[T8C]_[T9G]_[A10T]_T5.1 (ssRNA) RNA: UUUGAUUAAUAUGAUAUCGUUCUUUCUUGUAUUUCGUUUCUUUCUCGAUAUCAUAUUAAUCUUU	86.5
Ic_S2_P5E.1_K5.1_C5.1_H5.1_A5.1_[T5A]_[T6C]_[A7C]_F5.1_[T9C]_[A10G]_T5.1 (ssRNA) RNA: UUUGAUUAAUAUGAUAUCGUUCUUUCUUGUAACCUCGUUCUUUCUCGAUAUCAUAUUAAUCUUU	563
